According to doi:10.1101/2022.05.04.490607 (bioRxiv, 2022):
Blank lines part the entries; values can stand above or below the binder they belong to.

Legend:
[1] = biological target: T1, recombinant 14-3-3ζ, P63104; experiment: cryo-EM structure; details: remark: other sources report otherwise
T1 chain: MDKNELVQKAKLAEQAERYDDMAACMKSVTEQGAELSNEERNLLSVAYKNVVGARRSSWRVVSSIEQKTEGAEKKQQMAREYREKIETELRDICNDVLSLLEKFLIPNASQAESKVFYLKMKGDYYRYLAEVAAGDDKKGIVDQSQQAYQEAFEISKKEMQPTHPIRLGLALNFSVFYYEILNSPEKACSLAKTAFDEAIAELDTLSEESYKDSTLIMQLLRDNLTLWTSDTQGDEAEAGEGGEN

[2] = biological target: HSP90 beta (full-length human, N-terminal HA tag) (human, UniProt P08238 1-724, phosphorylated (sites in Table S1)); experiment: SEC-MALS
Chain of HSP90 beta (full-length human, N-terminal HA tag) (P08238 whole entry): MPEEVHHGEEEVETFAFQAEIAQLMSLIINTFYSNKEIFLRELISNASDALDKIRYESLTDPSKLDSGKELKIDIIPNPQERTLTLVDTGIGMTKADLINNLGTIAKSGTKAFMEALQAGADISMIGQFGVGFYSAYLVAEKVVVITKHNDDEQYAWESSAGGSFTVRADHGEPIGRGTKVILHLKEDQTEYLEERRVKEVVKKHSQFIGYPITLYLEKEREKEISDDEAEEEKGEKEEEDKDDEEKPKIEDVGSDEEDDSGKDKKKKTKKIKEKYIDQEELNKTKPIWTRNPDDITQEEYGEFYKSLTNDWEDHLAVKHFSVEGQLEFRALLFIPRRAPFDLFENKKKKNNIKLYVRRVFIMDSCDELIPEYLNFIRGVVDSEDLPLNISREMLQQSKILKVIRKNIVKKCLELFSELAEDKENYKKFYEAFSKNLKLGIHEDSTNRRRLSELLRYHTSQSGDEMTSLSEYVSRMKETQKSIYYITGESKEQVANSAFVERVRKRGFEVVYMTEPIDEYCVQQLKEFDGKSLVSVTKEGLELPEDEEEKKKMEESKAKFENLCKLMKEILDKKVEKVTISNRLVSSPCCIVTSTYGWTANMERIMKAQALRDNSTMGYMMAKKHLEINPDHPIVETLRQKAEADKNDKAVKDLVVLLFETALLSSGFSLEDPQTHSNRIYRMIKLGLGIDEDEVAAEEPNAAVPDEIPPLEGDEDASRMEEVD

stoichiometry N [1]: 2
B1: recombinant 14-3-3ζ, P63104 1-245 (natural protein)
chain: T1 chain

binding result [2]: binds
B2: CDC37 (full-length human, C-terminal Myc-DDK tag) (natural protein)
chain: MVDYSVWDHIEVSDDEDETHPNIDTASLFRWRHQARVERMEQFQKEKEELDRGCRECKRKVAECQRKLKELEVAEGGKAELERLQAEAQQLRKEERSWEQKLEEMRKKEKSMPWNVDTLSKDGFSKSMVNTKPEKTEEDSEEVREQKHKTFVEKYEKQIKHFGMLRRWDDSQKYLSDNVHLVCEETANYLVIWCIDLEVEEKCALMEQVAHQTIVMQFILELAKSLKVDPRACFRQFFTKIKTADRQYMEGFNDELEAFKERVRGRAKLRIEKAMKEYEEEERKKRLGPGGLDPVEVYESLPEELQKCFDVKDVQMLQDAISKMDPTDAKYHMQRCIDSGLWVPNSKASEAKEGEEAGPGDPLLEAVPKTGDEKDVSV
modifications: phosphoserine at S13 (seen in the cryo-EM map; further sites in Table S1)
